Laboratory results published in the supplement of paper PMC10724198.
± gives the standard deviation of the averaged measurements.

Tested on: Saccharomyces cerevisiae
Assay: protein stability index of tFT-peptide fusion (C-terminal peptide) (PSI (0-1 scale)); higher = more stable (slower turnover)
Conditions: temperature: 30 C
Protocol: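 MPS profiling in S. cerevisiae of the yeast C-terminome library: the last 12 aa of each annotated ORF are fused to the C-terminus of a sfGFP-mCherry timer, after a GGGS linker. Cells are FACS-sorted into 8 mCherry/sfGFP bins and deep-sequenced. PSI runs from 0 (unstable) to 1 (stable); wild type and das1Δ backgrounds, two technical replicates each.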

[1] = genetic background: das1 deletion

Sequence | protein stability index [1] | protein stability index (genetic background: wild type)
SVLTGGAVWMLF [DFG5 C-terminal 12 aa] | 0.7186 ± 0.0037 | 0.652 ± 0.013
TAIAHRAYIQLK [RSM7 C-terminal 12 aa] | 0.709 ± 0.035 | 0.685 ± 0.033
TALLIDNILTCK [MRM1 C-terminal 12 aa] | 0.7 ± 0.021 | 0.694 ± 0.048
TALLVSYCHLCV [YMR122C C-terminal 12 aa] | 0.625 ± 0.0077 | 0.6243 ± 0.0048
TAREKKNEMFSF [YCL023C C-terminal 12 aa] | 0.69596 ± 0.00065 | 0.711 ± 0.06
TASTSNSRNQTM [SPO71 C-terminal 12 aa] | 0.701 ± 0.03 | 0.687 ± 0.038
TASYLKDAVYLH [ATP6 C-terminal 12 aa] | 0.699 ± 0.031 | 0.703 ± 0.025
TCVYKKPERHKA [TCM62 C-terminal 12 aa] | 0.707 ± 0.03 | 0.701 ± 0.024
TDNTVDKFDFYK [RPT3 C-terminal 12 aa] | 0.711 ± 0.016 | 0.71 ± 0.013
TDVVLCARLADD [RIB7 C-terminal 12 aa] | 0.676 ± 0.014 | 0.7 ± 0.038
TEFGITKENLGE [TOG1 C-terminal 12 aa] | 0.697 ± 0.03 | 0.691 ± 0.032
TEIPYKPFTRQP [YOR293C-A C-terminal 12 aa] | 0.724 ± 0.0085 | 0.739 ± 0.013
TFHTVGDRYEMA [YPR127W C-terminal 12 aa] | 0.7019 ± 0.006 | 0.69654 ± 0.00054
TGKVFTRTNQSK [YFL019C C-terminal 12 aa] | 0.71 ± 0.035 | 0.698 ± 0.011
THNEGSSVKKMH [SLC1 C-terminal 12 aa] | 0.694 ± 0.045 | 0.674 ± 0.037
THPAGTLENATQ [YIL102C C-terminal 12 aa] | 0.694 ± 0.022 | 0.742 ± 0.017
TISNPFGDHNKI [LSB5 C-terminal 12 aa] | 0.727 ± 0.034 | 0.738 ± 0.099
TKAVHINLSLDN [ALD2 C-terminal 12 aa] | 0.69 ± 0.0043 | 0.702 ± 0.015
TKEYMDSIRSAK [VPS45 C-terminal 12 aa] | 0.687 ± 0.023 | 0.766 ± 0.099
TKKSTGKGPASS [BOL3 C-terminal 12 aa] | 0.7 ± 0.033 | 0.675 ± 0.03
TLFCLLFRFIIF [YIP5 C-terminal 12 aa] | 0.265 ± 0.0053 | 0.2739 ± 0.001

Sequence | protein stability index [1] | protein stability index (genetic background: wild type)
TLGEVINELNNK [VAM6 C-terminal 12 aa] | 0.7226 ± 0.0022 | 0.676 ± 0.011
TLHLVLRLRGGN [UBI4 C-terminal 12 aa] | 0.665 ± 0.013 | 0.687 ± 0.067
TLSYIRVHKLVK [TYC1 C-terminal 12 aa] | 0.647 ± 0.019 | 0.493 ± 0.015
TMVERRVSFTAQ [YER119C-A C-terminal 12 aa] | 0.73 ± 0.031 | 0.711 ± 0.022
TNIIRETLKSLN [ATP22 C-terminal 12 aa] | 0.786 ± 0.1 | 
TNNRHKYQNGRK [YLL032C C-terminal 12 aa] | 0.7 ± 0.053 | 0.664 ± 0.0094
TNPHQADASPKK [MPE1 C-terminal 12 aa] | 0.71 ± 0.023 | 0.702 ± 0.021
TQKLNEKSSKES [ATC1 C-terminal 12 aa] | 0.715 ± 0.031 | 0.644 ± 0.036
TSASSNFDDSFS [YCR018C-A C-terminal 12 aa] | 0.6885 ± 0.0016 | 0.717 ± 0.062
TSGRYASYRICM [RPB5 C-terminal 12 aa] | 0.6941 ± 0.0011 | 0.664 ± 0.011
TSIESALITLDL [MER1 C-terminal 12 aa] | 0.682 ± 0.016 | 0.695 ± 0.032
TSPRAINPKRSA [YDL114W C-terminal 12 aa] | 0.695 ± 0.021 | 0.703 ± 0.02
TSSFTEAVIKRL [IDH2 C-terminal 12 aa] | 0.696 ± 0.011 | 0.6628 ± 0.0025
TSSNPKSHQYSK [ROF1 C-terminal 12 aa] | 0.717 ± 0.0022 | 0.689 ± 0.029
TSTNTIYATVTI [DSE2 C-terminal 12 aa] | 0.688 ± 0.018 | 0.6656 ± 0.001
TTRETPLPPIPA [TYW1 C-terminal 12 aa] | 0.609 ± 0.012 | 0.642 ± 0.015
TTTEVETETAKQ [YPR063C C-terminal 12 aa] | 0.679 ± 0.011 | 0.7 ± 0.027
TTWKTTCKIFGE [YBL055C C-terminal 12 aa] | 0.693 ± 0.019 | 0.712 ± 0.008
TVETLLKLFTKS [SLD7 C-terminal 12 aa] | 0.6879 ± 0.0025 | 0.69379 ± 0.00044
TVRKGVYMRLYY [YNL146C-A C-terminal 12 aa] | 0.668 ± 0.0024 | 0.634 ± 0.036
